Measurements taken from publication doi:10.1101/776245.

Biological target: SERP2475 (Nhi), full-length (Staphylococcus epidermidis RP62a)
Assay: SEC

Q: For SERP2475 (Nhi), full-length (enzyme), which stoichiometry N is on record?
A: 2
